Test results: publication doi:10.1101/2025.01.01.631016, “A tool to dissect heterotypic determinants of homotypic protein phase behavior” (bioRxiv, 2025)

Molecular target: T1, Avitag-His-TEV-mEos3.1 (Lobophyllia hemprichii EosFP, …, point mutant)
T1 construct: also called purified mEos3.1; pET-Biotin-His6-mEos3.1; source: E. coli BL21 (DE3), co-expressed with BirA, purified (Ni-NTA, anion exchange)
T1 chain: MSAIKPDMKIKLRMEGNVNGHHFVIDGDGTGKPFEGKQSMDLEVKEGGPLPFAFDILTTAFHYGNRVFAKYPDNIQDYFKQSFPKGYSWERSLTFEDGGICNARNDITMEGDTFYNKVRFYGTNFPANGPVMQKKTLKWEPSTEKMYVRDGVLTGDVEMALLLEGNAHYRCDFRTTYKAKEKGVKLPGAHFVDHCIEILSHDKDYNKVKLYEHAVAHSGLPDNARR
Assay: BLI
Conditions: both partners purified

B1: tag free mEosNb (VHH)
VHH: QVQLQESGGGLVQAGGSLRLSCAASGNISQLVYMGWYRQAPGKERELVAGITHGGITYYADSVKGRFTISRDNAKNTVYLQMNSLKPEDTAVYYCAAFQWRSDDVGYLNLGPLEYWGQGTQVTVSS
notes: also called mEos3Nb; nanobody against mEos3; not shown: Avitag, C-terminal, cleaved; His, C-terminal, cleaved
Kd: 76.8 nM
